Experiments:
Test in all cases: filter
[1] = system: IgE (Homo sapiens); settings: 2'-OMe C,U; 2'-OH A,G; approximately 500 nM or higher
[2] = target: T1, IFN-gamma (Homo sapiens) (UniProt P01579); settings: dRmY: deoxy A,G, 2'-OMe C,U
T1 sequence: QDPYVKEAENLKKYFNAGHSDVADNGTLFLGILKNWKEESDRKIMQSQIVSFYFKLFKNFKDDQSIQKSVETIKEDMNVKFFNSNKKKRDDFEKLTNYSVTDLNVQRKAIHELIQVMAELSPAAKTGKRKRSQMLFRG

[3] = target: Complement C5 full length (Homo sapiens) (UniProt P01031+P01031); settings: dRmY: deoxy A,G, 2'-OMe C,U, plateau about 10%
[4] = target: IL-23 (Homo sapiens) (UniProt Q9NPF7+P29460); settings: approximately 500 nM or higher, DPBS, 0.1 mg/ml tRNA
[5] = target: PDGF-BB (Homo sapiens) (UniProt P01127); settings: 2'-OMe A,C,U; 2'-OH G; approximately 950 nM or higher; naive pool also binds PDGF-BB
[6] = high salt selection (250 mM NaCl)

Chain of IL-23 (Homo sapiens) (Q9NPF7 20-189, chain 1 of 2): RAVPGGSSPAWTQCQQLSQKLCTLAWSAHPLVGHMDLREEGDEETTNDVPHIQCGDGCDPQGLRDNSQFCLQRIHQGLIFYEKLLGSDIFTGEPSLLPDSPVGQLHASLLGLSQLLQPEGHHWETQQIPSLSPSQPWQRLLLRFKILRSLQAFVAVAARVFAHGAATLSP
Chain of IL-23 (Homo sapiens) (P29460 23-328, chain 2 of 2): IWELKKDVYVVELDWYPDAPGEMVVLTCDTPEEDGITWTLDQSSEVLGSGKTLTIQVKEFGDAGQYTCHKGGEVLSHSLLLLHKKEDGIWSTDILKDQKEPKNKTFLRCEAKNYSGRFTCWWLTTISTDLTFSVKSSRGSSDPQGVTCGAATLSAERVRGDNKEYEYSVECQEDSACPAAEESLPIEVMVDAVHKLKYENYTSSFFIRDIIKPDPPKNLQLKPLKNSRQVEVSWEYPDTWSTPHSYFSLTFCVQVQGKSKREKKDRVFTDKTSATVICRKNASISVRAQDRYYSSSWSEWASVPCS
Chain of Complement C5 full length (Homo sapiens) (P01031 19-673, chain 1 of 2): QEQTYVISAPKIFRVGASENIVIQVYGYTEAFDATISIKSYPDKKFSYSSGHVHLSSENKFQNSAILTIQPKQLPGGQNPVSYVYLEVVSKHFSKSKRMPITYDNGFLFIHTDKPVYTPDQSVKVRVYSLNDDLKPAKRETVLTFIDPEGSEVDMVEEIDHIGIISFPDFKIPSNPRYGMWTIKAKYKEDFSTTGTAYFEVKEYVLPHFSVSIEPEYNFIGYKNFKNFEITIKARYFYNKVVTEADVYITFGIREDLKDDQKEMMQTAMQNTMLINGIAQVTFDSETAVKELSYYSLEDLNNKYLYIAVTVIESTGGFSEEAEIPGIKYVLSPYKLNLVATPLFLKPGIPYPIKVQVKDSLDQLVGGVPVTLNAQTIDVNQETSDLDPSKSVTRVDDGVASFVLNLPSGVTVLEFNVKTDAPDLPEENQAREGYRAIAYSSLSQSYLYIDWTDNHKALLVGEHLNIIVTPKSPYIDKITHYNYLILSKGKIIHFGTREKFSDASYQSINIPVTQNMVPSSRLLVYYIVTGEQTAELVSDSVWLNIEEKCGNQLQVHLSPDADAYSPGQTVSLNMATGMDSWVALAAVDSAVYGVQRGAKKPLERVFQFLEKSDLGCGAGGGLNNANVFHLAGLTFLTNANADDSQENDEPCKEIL
Chain of Complement C5 full length (Homo sapiens) (P01031 678-1676, chain 2 of 2): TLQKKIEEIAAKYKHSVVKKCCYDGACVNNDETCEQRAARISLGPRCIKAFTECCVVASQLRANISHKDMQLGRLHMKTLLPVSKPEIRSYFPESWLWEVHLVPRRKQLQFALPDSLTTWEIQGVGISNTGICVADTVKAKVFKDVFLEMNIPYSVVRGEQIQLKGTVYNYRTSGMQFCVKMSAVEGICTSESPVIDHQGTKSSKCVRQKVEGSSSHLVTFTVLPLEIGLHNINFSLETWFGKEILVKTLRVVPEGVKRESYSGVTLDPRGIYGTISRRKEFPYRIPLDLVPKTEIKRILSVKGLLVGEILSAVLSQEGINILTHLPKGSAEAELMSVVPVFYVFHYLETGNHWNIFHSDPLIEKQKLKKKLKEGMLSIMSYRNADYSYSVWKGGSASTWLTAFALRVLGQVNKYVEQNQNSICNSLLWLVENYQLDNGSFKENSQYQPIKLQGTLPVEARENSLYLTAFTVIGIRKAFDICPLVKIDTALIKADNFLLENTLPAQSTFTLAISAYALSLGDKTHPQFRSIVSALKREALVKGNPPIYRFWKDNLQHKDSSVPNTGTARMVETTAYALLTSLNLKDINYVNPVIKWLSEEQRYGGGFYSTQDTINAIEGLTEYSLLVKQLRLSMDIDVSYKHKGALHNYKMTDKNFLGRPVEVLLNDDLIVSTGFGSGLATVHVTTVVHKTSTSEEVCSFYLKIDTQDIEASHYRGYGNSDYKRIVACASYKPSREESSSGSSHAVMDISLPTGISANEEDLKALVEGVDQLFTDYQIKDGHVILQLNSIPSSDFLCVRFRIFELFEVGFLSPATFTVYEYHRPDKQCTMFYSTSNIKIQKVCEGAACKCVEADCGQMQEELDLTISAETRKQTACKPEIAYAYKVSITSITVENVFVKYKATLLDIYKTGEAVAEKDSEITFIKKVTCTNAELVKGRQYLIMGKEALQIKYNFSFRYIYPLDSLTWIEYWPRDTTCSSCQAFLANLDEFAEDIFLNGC
Chain of PDGF-BB (Homo sapiens) (P01127 82-190): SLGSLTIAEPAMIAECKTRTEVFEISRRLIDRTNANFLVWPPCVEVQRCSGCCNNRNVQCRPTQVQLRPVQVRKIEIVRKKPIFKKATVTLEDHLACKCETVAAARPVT

In the case of “GGGAGAGGAGAGAACGUUCUACNNNNNNNNNNNNNNNNNNNNNNNNNNNNNNCGCUGUCGAUCGAUCGAUCGAUG [IgE rRmY round 6 pool]”, the Kd [1] is reported as greater than 500 nM.

“GGGAGAGGAGAGAACGUUCUACNNNNNNNNNNNNNNNNNNNNNNNNNNNNNNGGUCGAUCGAUCGAUCAUCGAUG [IFN-gamma round 12 dRmY pool, high salt]” gave a Kd [2, 6] of 590 nM.

“GGGAGAGGAGAGAACGUUCUACNNNNNNNNNNNNNNNNNNNNNNNNNNNNNNGGUCGAUCGAUCGAUCAUCGAUG [C5 full-length selection round 10 dRmY pool]” was tested, and the Kd ([3]; 1x DPBS, tRNA and salmon sperm DNA competitor) was 115 nM.

Sequence “GGGNGNGGNGNGNNCGUUCUNCNNNNNNNNNNNNNNNNNNNNNNNNNNNNNNCGCUGUCGNUCGNUCGNUCGNUG [IL-23 rGmH round 10 pool]” has a Kd ([4]; 2'-OMe A,C,U, 2'-OH G) greater than 500 nM.

Sequence “GGGAGAGGAGAGAACGUUCUACNNNNNNNNNNNNNNNNNNNNNNNNNNNNNNGGUCGAUCGAUCGAUCAUCGAUG [IFN-gamma round 12 dRmY pool, normal stringency]” has a Kd ([2]; 1x DPBS, tRNA, ssDNA, BSA) of 445 nM.

With “GGGNGNGGNGNGNNCGUUCUNCNNNNNNNNNNNNNNNNNNNNNNNNNNNNNNCGCUGUCGNUCGNUCGNUCGNUG [PDGF-BB rGmH round 10 pool]” the Kd [5] was greater than 950 nM.

“GGGAGAGGAGAGAACGUUCUACNNNNNNNNNNNNNNNNNNNNNNNNNNNNNNGGUCGAUCGAUCGAUCAUCGAUG [IFN-gamma round 10 dRmY pool, high salt]” was tested, and the Kd [2, 6] was 675 nM.

Work on “GGGAGAGGAGAGAACGUUCUACNNNNNNNNNNNNNNNNNNNNNNNNNNNNNNGGUCGAUCGAUCGAUCAUCGAUG [IFN-gamma round 10 dRmY pool, normal stringency]” yielded a Kd ([2]; 1x DPBS, tRNA, ssDNA, BSA) of 605 nM.

For “GGGAGAGGAGAGAACGUUCUACNNNNNNNNNNNNNNNNNNNNNNNNNNNNNNGGUCGAUCGAUCGAUCAUCGAUG [C5 partially trypsinized selection round 10 dRmY pool]”, the Kd ([3]; selection on partially trypsinized C5) was 150 nM.

“GGGAGAGGAGAGAACGUUCUACNNNNNNNNNNNNNNNNNNNNNNNNNNNNNNCGCUGUCGAUCGAUCGAUCGAUG [IL-23 rRmY round 9 pool]” gave a Kd ([4]; 2'-OMe C,U, 2'-OH A,G) greater than 500 nM.

Reference: US20050037394
